Test results published in patent US20060153807A1, “Vector-mediated gene regulation in midbrain dopamine neurons” (priority 2005, published 2006).
Substitutions are numbered along the chain they refer to. Numbers in names are those of the source. Each block holds one molecule with its values, some of them ahead of it.

What was measured:
αSyn = αSyn (Homo sapiens, UniProt P37840); experiment: αSyn protofibril formation assay in vitro; format: biochemical; settings: 200 μM αSyn, 100 μM test protein (molar ratio 1:2), 2 h at 55° C.
Procedure: The analysis of DJ-1 chaperone function to a candidate DJ-1 substrate, αSyn (FIG. 23) was extended.
αSyn protofibril and fibril formation assays were performed essentially as described (Uversky et al.). Briefly, protofibrils were formed by incubation of 200 μM WT synuclein with 100 μM DJ-1 or control chaperone protein in PBS for 2 h at 55° C. Samples were mixed with SDS loading buffer and analyzed by SDS-PAGE and Western blotting using αSyn LB509 antibody (Zymed). Quantitation of high molecular weight αSyn was performed using NIH Image J. Integrated pixel intensity of high molecular weight synuclein for each sample was normalized to monomeric synuclein intensity.

citrate synthase (CS) = biological target: T1, citrate synthase (CS) (Sus scrofa, UniProt P00889); experiment: suppression of heat-induced aggregation of citrate synthase (chaperone assay); format: biochemical; settings: for redox regulation: chaperone activity in the CS aggregation assay after DTT: preincubation with 0.5 mM DTT for 10 min at 4° C.; for chaperone activity: suppression of heat-induced CS aggregation: 0.8 μM CS, 43° C., DJ-1 0.5-4.0 μM
T1 construct: purchased Sigma
T1 sequence (P00889 28-464): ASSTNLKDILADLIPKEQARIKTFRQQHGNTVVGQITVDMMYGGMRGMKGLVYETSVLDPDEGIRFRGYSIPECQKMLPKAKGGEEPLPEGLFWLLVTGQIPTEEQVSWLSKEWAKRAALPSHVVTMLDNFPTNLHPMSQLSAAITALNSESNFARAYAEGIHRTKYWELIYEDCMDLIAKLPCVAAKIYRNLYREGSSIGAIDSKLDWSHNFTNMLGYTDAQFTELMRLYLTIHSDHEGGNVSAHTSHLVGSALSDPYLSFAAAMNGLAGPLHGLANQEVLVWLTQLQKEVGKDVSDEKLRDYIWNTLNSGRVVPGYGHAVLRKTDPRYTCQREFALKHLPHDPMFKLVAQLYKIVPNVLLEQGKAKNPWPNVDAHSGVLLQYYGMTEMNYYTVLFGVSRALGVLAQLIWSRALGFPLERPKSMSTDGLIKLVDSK
Procedure: (§1) FIG. 22 illustrates that DJ-1 is a redox-dependent molecular chaperone. (A) Aggregation of CS was monitored at 43° C. after addition of either 0.8 μM CS alone (black), or along with 8.0 μM RNase A (purple), 0.5 μM DJ-1 (aqua), 2.0 μM DJ-1 (blue), 4.0 μM DJ-1 (red), or 2.0 μM Hsp27 (green). (B) Aggregation of 0.8 μM CS after 30 min at 4° C. […] (C) Aggregation of insulin (26 μM) B chains induced by 20 mM DTT at 25° C. Insulin alone (black) or in the presence of 4.0 μM RNase A (purple), 0.5 μM DJ-1 (aqua), 2.0 μM DJ-1 (blue), 4.0 μM DJ-1 (red), or 2.0 μM Hsp27 (green). (D) CS thermal aggregation (unfilled bar) is suppressed by 4 μM DJ-1 (black bar), but chaperone activity is abrogated upon incubation of DJ-1 with 0.5 mM DTT for 10 min at 4° C. (gray bar). Further treatment of DTT-reduced DJ-1 with 10 mM H2O2 for 10 min at 4° C. leads to reactivation of CS suppression (hatched bar).
To test the redox regulation of DJ-1, the inventors assayed chaperone activity in the CS aggregation assay in the presence or absence of the reducing agent DTT. […] (FIG. 22D). […] To further test whether redox regulation might govern DJ-1 chaperone activity, reactivation studies using reduced DJ-1 were performed. DTT-reduced DJ-1 was incubated with H2O2 (10 mM in aggregation buffer for 10 min at 4° C. followed by dialysis against aggregation buffer for 2 h), and subsequently chaperone activity was measured in the CS thermal aggregation assay. […] This was not an indirect effect of residual H2O2 on CS aggregation, as H2O2 treatment of CS increased aggregation (unpublished data).
(§2) Aggregation assays. CS aggregation was performed in 40 mM HEPES (pH 7.8), 20 mM potassium hydroxinde, 50 mM potassium chloride, and 10 mM ammonium sulfate, and monitored in a thermostat-controlled fluorescence spectrophotometer with excitation and emission wavelengths at 500 nm and slit widths at 2.5 nm. Insulin aggregation was performed as described (Giasson et al. 2000). CS, insulin, RNase A, and GST were obtained from Sigma; human Hsp27 was obtained from Stressgen.

[1] = tested on: glutathione S-transferase (GST); settings: GST 0.4 μM, test protein 2 μM
Procedure: DJ-1 chaperone activity was quantified in the suppression of heat-induced aggregation of citrate synthase (CS) and glutathione S-transferase (GST), two well-characterized protein chaperone assays. These proteins lose their native conformation and undergo aggregation during incubation at 43° C. and 60° C., respectively.

insulin = experiment: aggregation suppression of reduced insulin (DTT-induced B chain aggregation); format: biochemical; settings: 20 mM DTT
Procedure: as §1, §2

DJ-1-deficient ES cells = experiment: rescue of DJ-1-deficient ES cells from H2O2 toxicity, MTT assay; settings: transient transfection of expression plasmid, 10 μM H2O2 for 15 h, vs vector alone
[2] = tested on: Undifferentiated ES cells; experiment: rescue from Q333P mutant NFL toxicity in undifferentiated ES cells, MTT reduction assay; format: cell-based; settings: 72 h after transfection
Procedure: FIG. 30 depicts the additional studies of DJ-1 mutations. […] Cells from FIG. 4M were quantified via ToPro3 nuclear staining and are expressed as number of cells per field from ten independent fields in each of three wells. […] GFP positive transfected cells from FIG. 5A-5L were quantified and are expressed as number of transfected cells per field from ten independent fields in each of three wells. […] After 72 h, cells were assayed by MTT reduction assay (which detects reduction of 3-(4,5-dimethylthiazol-2-yl)-2,5-diphenyltetrazolium bromide by metabolic enzymes) (Martinat et al. 2004). […] Undifferentiated ES cells were transfected with Q333P mutant NFL along with WT human DJ-1, C53A mutant DJ-1, or vector control. After 72 h, cells were assayed by MTT reduction assay (Martinat et al. 2004). […] Cells were differentiated for 72 h and lysed to produce Triton X-100-soluble and -insoluble fractions. Lysates were exposed to Western blotting with an antibody against transfected human NFL.

Molecule: Hsp27: well-described small cytoplasmic chaperone, human Hsp27, obtained from Stressgen; positive control [reference compound]
inhibition of αSyn protofibril formation (αSyn): failed to inhibit the generation of αSyn protofibrils | redox regulation: chaperone activity in the CS aggregation assay after DTT (citrate synthase (CS)): did not modify suppression of CS aggregation | suppression of GST thermal aggregation [1]: suppressed | chaperone activity: suppression of reduced insulin aggregation (insulin): effectively inhibited the aggregation of insulin

B3: RNase A: negative control protein, obtained from Sigma (protein, UniProt P61823 27-150, looked up)
Ribonuclease pancreatic: KETAAAKFERQHMDSSTSAASSSNYCNQMMKSRNLTKDRCKPVNTFVHESLADVQAVCSQKNVACKNGQTNCYQSYSTMSITDCRETGSSKYPNCAYKTTQANKHIIVACEGNPYVPVHFDASV
chaperone activity: suppression of heat-induced CS aggregation (citrate synthase (CS)): failed to demonstrate chaperone activity | chaperone activity: suppression of reduced insulin aggregation (insulin): neither DJ-1 nor the negative control protein RNase A displayed chaperone activity

More lines, main results first:

chaperone activity: suppression of heat-induced CS aggregation (citrate synthase (CS)): does not alter the basal activity | redox regulation: chaperone activity in the CS aggregation assay after DTT (citrate synthase (CS)): unaffected
B1: C106A: DJ-1 cysteine-to-alanine mutant at cysteine 106 (protein, UniProt Q99497 1-189, looked up, variant C106A)
chain: MASKRALVILAKGAEEMETVIPVDVMRRAGIKVTVAGLAGKDPVQCSRDVVICPDASLEDAKKEGPYDVVVLPGGNLGAQNLSESAAVKEILKEQENRKGLIAAIAAGPTALLAHEIGFGSKVTTHPLAKDKMMNGGHYTYSENRVEKDGLILTSRGPGTSFEFALAIVEALNGKEVAAQVKAPLVLKD
viability of H2O2-treated DJ-1 knockout cells after transfection (DJ-1-deficient ES cells): robustly rescued DJ-1 knockout cells from H2O2 toxicity

chaperone activity: suppression of heat-induced CS aggregation (citrate synthase (CS)): completely abrogates chaperone activity
B2: C53A: DJ-1 cysteine-to-alanine mutant at cysteine 53 (protein, UniProt Q99497 1-189, looked up, variant C53A)
chain: B1 chain with C53A, A106C
rescue from Q333P mutant NFL toxicity [2]: unable to rescue cells from Q333P mutant NFL toxicity | viability of H2O2-treated DJ-1 knockout cells after transfection (DJ-1-deficient ES cells): failed to protect from H2O2 toxicity
